“And” between values parts separate entries of the source, which are not always exact repeats. Equal values may be shown once.

In patent publication US20230365662A1 one finds OD450nm and Ratio OD(Variant)/OD(WT) data, which are given here for 19 molecules.

For this experiment, the target named is HRgpA-6H (Porphyromonas gingivalis) (UniProt P28784). The experiment can be described thus: ELISA, FASEBA Fab on coated HRgpA-6H.
Chain of UniProt P28784 (P28784 228-991): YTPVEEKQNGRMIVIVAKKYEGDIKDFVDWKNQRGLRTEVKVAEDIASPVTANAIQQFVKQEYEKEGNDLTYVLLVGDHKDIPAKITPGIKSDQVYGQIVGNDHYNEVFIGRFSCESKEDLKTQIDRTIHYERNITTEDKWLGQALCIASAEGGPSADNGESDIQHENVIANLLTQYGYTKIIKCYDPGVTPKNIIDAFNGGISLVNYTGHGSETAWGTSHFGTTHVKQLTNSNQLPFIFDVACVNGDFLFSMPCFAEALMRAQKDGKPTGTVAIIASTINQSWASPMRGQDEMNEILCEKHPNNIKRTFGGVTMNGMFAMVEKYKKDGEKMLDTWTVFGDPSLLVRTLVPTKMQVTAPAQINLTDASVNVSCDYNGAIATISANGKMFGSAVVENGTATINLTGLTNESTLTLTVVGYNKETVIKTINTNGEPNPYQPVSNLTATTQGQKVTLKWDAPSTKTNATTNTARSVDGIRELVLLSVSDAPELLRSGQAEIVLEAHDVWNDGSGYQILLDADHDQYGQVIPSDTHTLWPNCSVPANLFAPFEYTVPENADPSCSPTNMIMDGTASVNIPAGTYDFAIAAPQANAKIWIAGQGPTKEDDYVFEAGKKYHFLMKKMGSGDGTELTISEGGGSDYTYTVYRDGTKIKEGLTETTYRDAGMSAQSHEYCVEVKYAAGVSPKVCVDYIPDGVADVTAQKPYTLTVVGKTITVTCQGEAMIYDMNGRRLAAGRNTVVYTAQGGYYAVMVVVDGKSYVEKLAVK

B1: KB001 mouse Fab VL S57P (Fab, V domains shown)
VH: EVQLKQSGPGLVAPSQSLSITCTVSGFSLSIYSVHWVRQPPGKGLEWLGMIWGGGSSDYNSALKSRLSISKDNSKSQVFLKMNSLQTDDTAMYYCARNGNFYAMDYWGQGTSVTVSS
VL: QIVLTQSPAIMSASLGERVTMTCTASSSVSSSFLHWYQQKPGSSPQLWIYSTSNLAPGVPARFSGSGSGTSYSLTISSMEAEDAATYYCHQYHHSPYIYTFGGGTKLEIK
For B1, the OD450nm was determined as 0.858 and the Ratio OD(Variant)/OD(WT) was found to be 1.05.

B2: KB001 mouse Fab VL T100H (Fab, V domains shown)
VH: EVQLKQSGPGLVAPSQSLSITCTVSGFSLSIYSVHWVRQPPGKGLEWLGMIWGGGSSDYNSALKSRLSISKDNSKSQVFLKMNSLQTDDTAMYYCARNGNFYAMDYWGQGTSVTVSS
VL: QIVLTQSPAIMSASLGERVTMTCTASSSVSSSFLHWYQQKPGSSPQLWIYSTSNLASGVPARFSGSGSGTSYSLTISSMEAEDAATYYCHQYHHSPYIYHFGGGTKLEIK
B2: the OD450nm was 0.597 and 0.631; the Ratio OD(Variant)/OD(WT) is 1.14 and 1.21.

B3: KB001 mouse Fab VL Y97E (Fab, V domains shown)
VH: EVQLKQSGPGLVAPSQSLSITCTVSGFSLSIYSVHWVRQPPGKGLEWLGMIWGGGSSDYNSALKSRLSISKDNSKSQVFLKMNSLQTDDTAMYYCARNGNFYAMDYWGQGTSVTVSS
VL: QIVLTQSPAIMSASLGERVTMTCTASSSVSSSFLHWYQQKPGSSPQLWIYSTSNLASGVPARFSGSGSGTSYSLTISSMEAEDAATYYCHQYHHSPEIYTFGGGTKLEIK
Regarding B3, the OD450nm came out at 0.793 and the Ratio OD(Variant)/OD(WT) turned out to be 1.

B4: KB001 mouse Fab VL S57G (Fab, V domains shown)
VH: EVQLKQSGPGLVAPSQSLSITCTVSGFSLSIYSVHWVRQPPGKGLEWLGMIWGGGSSDYNSALKSRLSISKDNSKSQVFLKMNSLQTDDTAMYYCARNGNFYAMDYWGQGTSVTVSS
VL: QIVLTQSPAIMSASLGERVTMTCTASSSVSSSFLHWYQQKPGSSPQLWIYSTSNLAGGVPARFSGSGSGTSYSLTISSMEAEDAATYYCHQYHHSPYIYTFGGGTKLEIK
With B4, the OD450nm was 0.873 and 0.825; the Ratio OD(Variant)/OD(WT) is 1.07 and 1.01.

B5: KB001 mouse Fab VL T100L (Fab, V domains shown)
VH: EVQLKQSGPGLVAPSQSLSITCTVSGFSLSIYSVHWVRQPPGKGLEWLGMIWGGGSSDYNSALKSRLSISKDNSKSQVFLKMNSLQTDDTAMYYCARNGNFYAMDYWGQGTSVTVSS
VL: QIVLTQSPAIMSASLGERVTMTCTASSSVSSSFLHWYQQKPGSSPQLWIYSTSNLASGVPARFSGSGSGTSYSLTISSMEAEDAATYYCHQYHHSPYIYLFGGGTKLEIK
In the case of B5, the OD450nm is 0.587 and 0.566; the Ratio OD(Variant)/OD(WT) was 1.12 and 1.08.

B6: KB001 mouse Fab VL T100E (Fab, V domains shown)
VH: EVQLKQSGPGLVAPSQSLSITCTVSGFSLSIYSVHWVRQPPGKGLEWLGMIWGGGSSDYNSALKSRLSISKDNSKSQVFLKMNSLQTDDTAMYYCARNGNFYAMDYWGQGTSVTVSS
VL: QIVLTQSPAIMSASLGERVTMTCTASSSVSSSFLHWYQQKPGSSPQLWIYSTSNLASGVPARFSGSGSGTSYSLTISSMEAEDAATYYCHQYHHSPYIYEFGGGTKLEIK
In the case of B6, the OD450nm is 0.613 and 0.621 and 0.674; the Ratio OD(Variant)/OD(WT) was 1.17 and 1.19 and 1.29.

B7: KB001 mouse Fab VL T100M (Fab, V domains shown)
VH: EVQLKQSGPGLVAPSQSLSITCTVSGFSLSIYSVHWVRQPPGKGLEWLGMIWGGGSSDYNSALKSRLSISKDNSKSQVFLKMNSLQTDDTAMYYCARNGNFYAMDYWGQGTSVTVSS
VL: QIVLTQSPAIMSASLGERVTMTCTASSSVSSSFLHWYQQKPGSSPQLWIYSTSNLASGVPARFSGSGSGTSYSLTISSMEAEDAATYYCHQYHHSPYIYMFGGGTKLEIK
For the molecule B7, the OD450nm amounted to 0.589 and the Ratio OD(Variant)/OD(WT) was found to be 1.12.

B8: KB001 mouse Fab VL T24I (Fab, V domains shown)
VH: EVQLKQSGPGLVAPSQSLSITCTVSGFSLSIYSVHWVRQPPGKGLEWLGMIWGGGSSDYNSALKSRLSISKDNSKSQVFLKMNSLQTDDTAMYYCARNGNFYAMDYWGQGTSVTVSS
VL: QIVLTQSPAIMSASLGERVTMTCIASSSVSSSFLHWYQQKPGSSPQLWIYSTSNLASGVPARFSGSGSGTSYSLTISSMEAEDAATYYCHQYHHSPYIYTFGGGTKLEIK
For the molecule B8, the OD450nm was 0.741 and the Ratio OD(Variant)/OD(WT) was 0.964.

B9: KB001 mouse Fab VL T100R (Fab, V domains shown)
VH: EVQLKQSGPGLVAPSQSLSITCTVSGFSLSIYSVHWVRQPPGKGLEWLGMIWGGGSSDYNSALKSRLSISKDNSKSQVFLKMNSLQTDDTAMYYCARNGNFYAMDYWGQGTSVTVSS
VL: QIVLTQSPAIMSASLGERVTMTCTASSSVSSSFLHWYQQKPGSSPQLWIYSTSNLASGVPARFSGSGSGTSYSLTISSMEAEDAATYYCHQYHHSPYIYRFGGGTKLEIK
On to B9, for which the OD450nm was 0.616 and the Ratio OD(Variant)/OD(WT) stood at 1.18.

B10: KB001 mouse Fab VL S57Q (Fab, V domains shown)
VH: EVQLKQSGPGLVAPSQSLSITCTVSGFSLSIYSVHWVRQPPGKGLEWLGMIWGGGSSDYNSALKSRLSISKDNSKSQVFLKMNSLQTDDTAMYYCARNGNFYAMDYWGQGTSVTVSS
VL: QIVLTQSPAIMSASLGERVTMTCTASSSVSSSFLHWYQQKPGSSPQLWIYSTSNLAQGVPARFSGSGSGTSYSLTISSMEAEDAATYYCHQYHHSPYIYTFGGGTKLEIK
For B10, the OD450nm is 0.858 and 0.838; the Ratio OD(Variant)/OD(WT) is 1.05 and 1.03.

B11: KB001 mouse Fab VL T100Q (Fab, V domains shown)
VH: EVQLKQSGPGLVAPSQSLSITCTVSGFSLSIYSVHWVRQPPGKGLEWLGMIWGGGSSDYNSALKSRLSISKDNSKSQVFLKMNSLQTDDTAMYYCARNGNFYAMDYWGQGTSVTVSS
VL: QIVLTQSPAIMSASLGERVTMTCTASSSVSSSFLHWYQQKPGSSPQLWIYSTSNLASGVPARFSGSGSGTSYSLTISSMEAEDAATYYCHQYHHSPYIYQFGGGTKLEIK
On to B11, for which the OD450nm was 0.586 and 0.596 and 0.604; the Ratio OD(Variant)/OD(WT) is 1.12 and 1.14 and 1.15.

B12: KB001 mouse Fab VL T24K/R18S (Fab, V domains shown)
VH: EVQLKQSGPGLVAPSQSLSITCTVSGFSLSIYSVHWVRQPPGKGLEWLGMIWGGGSSDYNSALKSRLSISKDNSKSQVFLKMNSLQTDDTAMYYCARNGNFYAMDYWGQGTSVTVSS
VL: QIVLTQSPAIMSASLGESVTMTCKASSSVSSSFLHWYQQKPGSSPQLWIYSTSNLASGVPARFSGSGSGTSYSLTISSMEAEDAATYYCHQYHHSPYIYTFGGGTKLEIK
On to B12, for which the OD450nm was determined as 0.761 and the Ratio OD(Variant)/OD(WT) amounted to 0.99.

B13: KB001 mouse Fab VL T100W (Fab, V domains shown)
VH: EVQLKQSGPGLVAPSQSLSITCTVSGFSLSIYSVHWVRQPPGKGLEWLGMIWGGGSSDYNSALKSRLSISKDNSKSQVFLKMNSLQTDDTAMYYCARNGNFYAMDYWGQGTSVTVSS
VL: QIVLTQSPAIMSASLGERVTMTCTASSSVSSSFLHWYQQKPGSSPQLWIYSTSNLASGVPARFSGSGSGTSYSLTISSMEAEDAATYYCHQYHHSPYIYWFGGGTKLEIK
For the molecule B13, the OD450nm was determined as 0.585 and the Ratio OD(Variant)/OD(WT) is 1.12.

B14: KB001 mouse Fab VL S95Q (Fab, V domains shown)
VH: EVQLKQSGPGLVAPSQSLSITCTVSGFSLSIYSVHWVRQPPGKGLEWLGMIWGGGSSDYNSALKSRLSISKDNSKSQVFLKMNSLQTDDTAMYYCARNGNFYAMDYWGQGTSVTVSS
VL: QIVLTQSPAIMSASLGERVTMTCTASSSVSSSFLHWYQQKPGSSPQLWIYSTSNLASGVPARFSGSGSGTSYSLTISSMEAEDAATYYCHQYHHQPYIYTFGGGTKLEIK
Consider B14, for which the OD450nm was 0.931 and 0.936 and 0.927; the Ratio OD(Variant)/OD(WT) is 1.01 (2×) and 1.02.

B15: KB001 mouse Fab VL T100F (Fab, V domains shown)
VH: EVQLKQSGPGLVAPSQSLSITCTVSGFSLSIYSVHWVRQPPGKGLEWLGMIWGGGSSDYNSALKSRLSISKDNSKSQVFLKMNSLQTDDTAMYYCARNGNFYAMDYWGQGTSVTVSS
VL: QIVLTQSPAIMSASLGERVTMTCTASSSVSSSFLHWYQQKPGSSPQLWIYSTSNLASGVPARFSGSGSGTSYSLTISSMEAEDAATYYCHQYHHSPYIYFFGGGTKLEIK
Turning to B15, the OD450nm was 0.552 and the Ratio OD(Variant)/OD(WT) was found to be 1.05.

B16: KB001 mouse Fab VL T100Y (Fab, V domains shown)
VH: EVQLKQSGPGLVAPSQSLSITCTVSGFSLSIYSVHWVRQPPGKGLEWLGMIWGGGSSDYNSALKSRLSISKDNSKSQVFLKMNSLQTDDTAMYYCARNGNFYAMDYWGQGTSVTVSS
VL: QIVLTQSPAIMSASLGERVTMTCTASSSVSSSFLHWYQQKPGSSPQLWIYSTSNLASGVPARFSGSGSGTSYSLTISSMEAEDAATYYCHQYHHSPYIYYFGGGTKLEIK
Turning to B16, the OD450nm was 0.546 and the Ratio OD(Variant)/OD(WT) was found to be 1.04.

B17: KB001 mouse Fab VL T100S (Fab, V domains shown)
VH: EVQLKQSGPGLVAPSQSLSITCTVSGFSLSIYSVHWVRQPPGKGLEWLGMIWGGGSSDYNSALKSRLSISKDNSKSQVFLKMNSLQTDDTAMYYCARNGNFYAMDYWGQGTSVTVSS
VL: QIVLTQSPAIMSASLGERVTMTCTASSSVSSSFLHWYQQKPGSSPQLWIYSTSNLASGVPARFSGSGSGTSYSLTISSMEAEDAATYYCHQYHHSPYIYSFGGGTKLEIK
Take B17: the OD450nm is 0.602 and 0.664 and 0.625; the Ratio OD(Variant)/OD(WT) is 1.15 and 1.27 and 1.19.

B18: KB001 mouse Fab VL H90W (Fab, V domains shown)
VH: EVQLKQSGPGLVAPSQSLSITCTVSGFSLSIYSVHWVRQPPGKGLEWLGMIWGGGSSDYNSALKSRLSISKDNSKSQVFLKMNSLQTDDTAMYYCARNGNFYAMDYWGQGTSVTVSS
VL: QIVLTQSPAIMSASLGERVTMTCTASSSVSSSFLHWYQQKPGSSPQLWIYSTSNLASGVPARFSGSGSGTSYSLTISSMEAEDAATYYCWQYHHSPYIYTFGGGTKLEIK
Turning to B18, the OD450nm stood at 0.913 and the Ratio OD(Variant)/OD(WT) was 1.06.

B19: KB001 mouse Fab VL T100G (Fab, V domains shown)
VH: EVQLKQSGPGLVAPSQSLSITCTVSGFSLSIYSVHWVRQPPGKGLEWLGMIWGGGSSDYNSALKSRLSISKDNSKSQVFLKMNSLQTDDTAMYYCARNGNFYAMDYWGQGTSVTVSS
VL: QIVLTQSPAIMSASLGERVTMTCTASSSVSSSFLHWYQQKPGSSPQLWIYSTSNLASGVPARFSGSGSGTSYSLTISSMEAEDAATYYCHQYHHSPYIYGFGGGTKLEIK
Consider B19, for which the OD450nm was 0.603 and 0.597; the Ratio OD(Variant)/OD(WT) is 1.15 and 1.14.
